Test: protease stability score; higher = more stable; yeast display proteolysis, trypsin and chymotrypsin;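 note: log10 excess protease needed over predicted unfolded state with 0 meaning unfolded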

| Sequence | protease stability score |
| --- | --- |
| DEELVEQLKKMYENEKNGDPDKVHEQFDKDARIDIGEKQVRGRDQASREAERERKQINVEIKHVDIKAHNGRATIDMVIVFNINGQPHRRRVTVYAVLHNGKIKSMSRHMDPSEQDQLTQ | 0.343 |
| DDTDQAEKMMEKLKDAFDTGDEDQVLKLADKDVKVDVGDKSYHGKEEYLDLFRHWLKKVDHLRLEVKHVNQNGDEISVTAKLVLDNNGETTDHTLHLVARSVNGDVVLQSMNNG | 1.16 |
| DEEKEKRTARQVADVLRSGNPDEMMKLADKDAEVRVGDHVLHGREEISKLMHELRRRIDHLEIKHVEVDNGSVNIVYVVRHNGKTEVVVLHVDFHNGKIREMTVRSG | 1.36 |
| DEEAIHRMEEFIKNVNNNNEEKLKELADPNVDAHIGDKVIHGMERIVTELVKELENIDIEYKDMRVEDRGDNIHIQIRAIFHHNGKPQEHTQIIDVQVENGKVKKMRRSSDS | 0.185 |
| DEKALENLRRVNDARKTNDEDRIKKLLDKDARVQVGDRQIKGRENVSDTLRKLEEHMRIEIKDYRVDVQNGRAKLEVHWQFEVNGKPRKVTYDWEAEANNGKIQTMHAQFTEEDKRKRKQ | -0.039 |
| DSKEVRKAEELAKAVRTGDPDTIVKLMDPNARLKVGDREYRGQKDVQKFLKRVLDEIRVKLDVQDIKAHNGKVKVRATVVQRKNGTPHHRTMRMWVQMNNGHVEELSVSNDS | 0.401 |
| DEKRARKLLEKAFELVQKGNKDTMRKIGKPNVKYKYVDQEYEGPEAMKFVIDVVKKIGAEVKKQEVEVKGDTAKATFQYRQGDKTVETRVEVKYEGDKLKEVRVEATDEVKKLVHQG | 0.009 |
| DRNRRAEEFARTQLKAFKHGDEKLLRDLFDPNVHISVGDQTVHGRDEVARQEKDQATQVDHATRKIDRVEMNGDQVEVRARIRLNFNGQDRSTDVVYHATDDNGHIVVKSVRQG | 0.017 |
| DEEVLKVAHDWFENVTQGDPDKLSRLMDKDARVNVGEKQYHGREEIMRQHERENKEAEVTFQKMDFKVTGDRAVVNVRVDVNINGQPFEVTFIFKLEVHNGRIKQIEMDFSEEQWDKLRR | -0.211 |
| DEEKKDKASEMVRAEQKNNPDKVNELADKNAKFNIGDKRIHGREHLKKTIETENREARYDIDEVDVRAKNGKVDVKMSMRVRHNGRPDRFHVEQTVRFNNGKAQEVTRHKKK | -0.299 |
| DEHAQKRASQLVDKQNTGNPESIANYMDPNAKVQVGENRVHGREEIETLVKQKNKEARYEYNVESMSIQGDKLTMHLHAVVEINGQPLEFKVRVDFTFHNGRIRDVYYQLPEELLEELKR | 0.165 |
| DEERDLDIAVEAAKNLLTGNEERFSKMAPPDVRIEYGDKTVHGREQANTAVKEFRDRVDHIEIKRIEKDGNKAHIEFIANVNGHRFTVTMVVDVSNGRVNQVDIRARNKEDQEKMKG | 0.06 |
| DESVRRNFEDLLRAEETGDPDRVMDLVDPNARIQVGDKYLQGREQIDETMERHKSEIRFSIDRLSATDHNGVVDVTMSMKKNVNGKPKKFRAEVNVKAHNGKLKLLDMKIDG | -0.284 |
| DEEVNHQMSRMWEANKRGDEHTLRELVDPNAKIDVGDKRVHGMEEYVKQVRNRREDLRWRFKIDHMSVDGDTVKFRARAVENENGRPQSYKFEQNVRVHNGKLTEQNQQDHG | 0.181 |
| DQEHYEKIAKHMSDVLRTGNPDDMLRMIDPNARLEVGDKRWNGRHKIKKFLETFVKSADHVKVRHVEVSGNDITLDVVAHVNGRSVKFNVHANVHNGRIKEVKFDPRAWRDLQT | 0.505 |
| DSEKIKDVARQLVRQIEENNPDEIVKLLDPNARADYGDKRISGHEKIADELRKFHERADRIRVETVEVHNGRIVIDLHVNINGRMQRFHVFADLHNGKIKRIEFQTG | 1.54 |
| DEESRAQSFMSKFNDNLRRGDPEKLKTYMDPNVKVQVGEKRLNGREQAARFWVEIARHVDHISVEFKSLKVTGDKIKAKAIVVLDVNGQKRRQDVVLYAQIQGDTIRLKKVDAP | 1.07 |
| DEENAKTLKQQMNQYQSGDEEEVQENVDKDAKFVIGDKRIHGREKYREQVRRELEDIRIDVKIKHLNDKGEKVQVHARLERNHNGRPTDATVDVVVRWHNGRAKEAQFHTDG | -0.11 |
| DDDKAKEIARQVWHAIREGDEDEAKRQFDKNARVVYGDKTVHGKEQAARMVHEWRRRIDHLEINDMKVDGNSVHVVFRYVHNGRERTQVVRIELDNGRVKNAEFTDQ | 1.46 |
| DEKEDKKVLERMAKLFVSGNKEEVQKMGKDDVEVVYGDETYHGPDAARKVIERVKKLGAKVEYKEVHVEGDTMTAKVEADIAGKRVRFHVTYKATGNRVDRMEVKYTKEAQEVIKHG | 0.895 |
| DDELQHQVERFLTNIEHGDPDKIQRQVDKDVNARVGDETLHGSDQLKDTWHDTQRQMRFSFHVTKYDAREGHVDITAHITMDRNGKPESRQVRVRFNINNGKLREVDMQLRG | 1.04 |
| DNEDAQQAIQMLKAELDGDEERAAQLMDPNARFNIGDKEIHGRETFQHWLREVKKHMHVKIDRLEIDVEGDKVDVRMEFVQNHNGKPHRAEATVEVRAENGHVKEVTVDVKG | 0.551 |
| DEKALEFIRKFEEVMKKGDHDTLKEMMDPNARFQYGDKTVHGREHAADWAKRVRDQMRVRIISVKYTARGNKATIQVRNQVNFNGRPLHDHFEVSFDMHNGKIKHASRTLSEEQRQRLEQ | 0.062 |
| DKDDFKEAEHILRTGDPDEWSKMVDPNARAEVGDEEIHGKEEFDRWMQKKKKRVDHEQVKSVDFHGDKWRVVLVFNVNGRQADVVMVMQVHNGRLVYQVVRFRDHQVKDVVRKRLS | 0.336 |
| DEELFELLRELLKAEQTGDEERLSQLVDKDVSVKIGDHVIHGRDQFAKHASERHKQMDVKVRIDSYEVRGDQVEASMTVVHDHNGRPHKDTVTLQAKYDNGKIKEMRFDFDTTVLKKIES | 0.609 |

| Sequence | protease stability score |
| --- | --- |
| EEEDVKRVEEDLHNGDPDRLRDLMDKDVSVEYGDKTVNGRENAAEIWEHIRRNVDRIRIVSMHVKNGKINFDLTAEVNGTKFQIRVVWELRNGRAKSVKIEVTDEEVKKLLDRLLQ | 2.04 |
| DEKIKQNIEEFLKAVQHGDEERMTQLVDPNAKIVVGNQRVHGMEEYARDIVRKVKEIRIKIDRMHISVQGNKAVITMVYVININGKPVTFRAVYIYEVHDGRVKRVKNNIPEEDQKKVDS | 0.733 |
| DEEVAKTMAEQWIKAVQKGDKEKLVKHYKPNVQWIDGDERTQGTDVVRKVMETAQKRGVEFQVRKRKVEGDQFEIVYDANVGNKTATFDIKFQVKGGKMEEMRVEVDERAKKVRKEG | 0.094 |
| DEENMEVLEKVLDAMRTGDKKKVRDNLDKDARIEIGDHVLNGREEFAKWVVQIKKEIKVQINIQSVDVSNGRVRVHAQVEFRVNGQPQQYTIHIVAEIHNGHIKTLRMSFDDDQQRKFES | 0.924 |
| DESARDIASTIVSALHNNNPSQFSENLDKDATLNIGDKRIHGKERAEEHLSNQIKSLRIQFDDYQVRVHNGDVIINLDYKRDHNGEPRRVKQRVTIQIHNGRAQSVVVKETS | 0.365 |
| DEKTVKEVVDKWIKALENNDEEKLQKMLKPNGEAHYADTTYKGKDQIVKYVVEFMRRGVELQVKEQEVKGGRAEYQVDATLGGDTVTLRVVIYVKDGVVDKVEFRDDEKVQKMMKKG | 0.105 |
| DKEEVHKLKHLLRHGDFEKINKKADKDARMQIGDRVYHGREKMKKALEILQREVDDIRVDSIKVSGDRVSAEMHMEVNGRRYVFVVVIRATNGRVVSLKVKARSESQDEHLKNLVE | 0.625 |
| DEDAVKAYERLLTAWNHGDPDQAKHQVDPNVRVQVGDKQIHGREELARQIERRRREANIHNQLEDYRDNGEEIQLHVEVTEDHNGNPDTKTYTAYAQFTNGKMQELTINDHG | -0.219 |
| DEKRLKEVAKKVFEAVQKGDTEKLKKLGKEDGKFQFLDHRYKGKEEYARIMQKLKKHGVQFEIKKYQVKDNKVRMETVVTYGDQTFTVEAEARYEGGQLDEARVEMTEEAKERLKQG | -0.084 |
| DHEDKERASQAIEAWNTGDPREFEKQFDPNARVHVGDRHIHGREQFEDEMKRHKDESRYEISLRNVTVDNGRIKLDVVLSVDENGRPETQHLKIDLELHNGRVVSMQFNHKK | -0.209 |
| DSEDLVRKFITEWEQAVQQGDEKQLQELMDEDAHVSVGDTKLHGREDIARELAEQIRHADHVQFRIESLSVHGDHVNLNQKVRYKHNGKTDSSRYRLQAIAHGDKVTLKSFHDG | -0.28 |
| DEEENNKIARRAAKAFSTGDPDEFHKLVDPNARVRIGEKEVHGREDVHRMVQELRERADHIQVTSFTFQGNKITLDLSLDVNGHTVKLNVEITIHNGHVVDINIDPEQVKSLHG | 0.647 |
| DSEEEKTISEQLRTNNPDDAEKLVDENARIVVGDKVIDGRKDAHRFFKRLTEQIDHLQVDSLTVKNGRFSLDFRFNVNGRDLRMVMKVVVDNGKIQYMQLDARDHDIQEHMRDALR | 0.967 |
| EQELRKKATEMLKVVQEGDEDRLVEYADPNVRVQVGDKVLHGQEDLRKFVQRLTKESRIHLKHVDIEVHGNKIDITVEADVEHNGRPSTDTFSMRVEMENGRAKFIQVRTSK | 1.39 |
| DHEAVKLMERLIEALNTGDPDQLRRLADKDVRWRYGDKDVHGRESVVTQLKKRLEQSRFKVTDVDIKAQGDNVTADYRVIFEHNGKPDDVTVKVEAKVHNGRIKMMKIQTDK | 0.623 |
| DEHEAKKMSEMFKNLATGNPDTAKRQFDKDASVQIGDKVVHGREHLSRTLKRRRDQIRVVVEDVKVTVNGDKAEIQVIFSWEHNGEPRRSVYFATVHWHNGNVKKVTVTEQS | -0.121 |
| DQEAAEILKRFVKAIKTGDPDEAKEQMDKDVKVRVGDKVIHGREEVAKEVEQTNRNLRLEVEINDYTVDGDKVTIRMRIVTNENGRPDVKTVKVTAHAHNGRLVHLEIQSDS | 0.778 |
| DEEAQKQAEHLIRNLEQGNEDQIERLADPNARFQYGNKEINGREEMSTWVRRYKKQARLEIKSVSADAQGDKITVDVHFVIDINGRPSTMRVNVVMSIDNGSINHMVFEIDEEQEKELNK | 0.202 |
| DEEKNRKQATKVARNIADGNEDEIRKLADEDARANVGDKQVHGRDHVRKLLSDFHHTADRVKLDTINVSGDKVNAKLVLDYNGRRVSVVVQAEVRNGRLKQVNIRATNPEHQKKVES | 0.239 |
| DSRAQSLFHKWMDALRTGDRRKLSELADPNVSITYGDKTIHGREENMKEAHRLVNQMRVDFDIKSIENEPNRVIIRMRVEYDVNGRPFDDEVVVELRAKGDHIKEVRVRIDPRQVKELSG | 0.907 |
| DEEEMKEMLEKWHEAVQKGDSDKVKKLYKPNVEWEDSDTQKQGVEVVIKMLQEVQKKGLEFQVRKAKVEGDTAQAVYDLRFGDKTVTFTVELQAQGGRVDKVRVELNEEAKKVLTKG | 1.19 |
| EEKQKTHVERFIEILREGDPQKAREMADKDAKFVYGDKSVHGMDEFRRQVERRNKQIHIDLKVREVDVHGNNVKIIIDAQEDHNGNPDSFKADMEVVYHNGRIKSASMDKQT | 0.074 |
| DEDKTMRELIRRLDKNLKEGDPSKAREQADKDARANIGEKRVTGRKRLDEEVKTLLDSYDHIRVHLKEVRVENGSAVARVDYHYDQNGQEKSKEVILHARFQGDRLTLEQMTMP | 0.043 |
| DDKDLKDVAEKVMHAVQNGDPHEARKMFDKDARIIVGDTEVHGRSNIMHLMTEFRKRVDHAEIKDLTVNGEDVRIDMVLDINGKKHRRTWEVRVSNGRARHAHLDPKDLERQSK | 0.481 |
| DRNHVKEIAKEILKAMETNDEKRMSELMDKNVRLVYGDTEVHGRERVLTTIKHELESIDHVNFHDMSVDGDKIHVVYHVQKNGDRRQVEVRYVISNGKIQEVQINTR | 0.623 |
